# From patent US20230226096A1 (Orna Therapeutics, Inc., priority 2020, published 2023)
# B1: Potamipivirus B (nucleic acid)
# DNA: TTTCAACGTCGTGGCTGACGTTAAAAAGCCACAATTCCACTTACCTTTTACCTTTTATGTTTAATGTTTGTTAGTTTTGTGATCTTTAACAAATAGATCTAAATAATTTGTTGGTAACCAATCTCGGATGTTTCGGCTGCATTGTAGTTTATTTATTTCATTTTAGTTGTAGGTGGCCACTACGTCCTGGAATCATACATGGTAACATGTACCTCGGCGGTTATCCACTATTACGCTAATCTAAGAATATTTAAATGAAAATGTAAGTGTTACGGCTGACTTTGGGCCTGATAGTTAAATGCTCGCACTGACAGATAGTACCCTCCTTTAGGATCGATTCTGTTACATGGGATCCATTTTGGTGCCCCACTGATTCAACCTCTTTGTTGAAAAAGAGTTAGCATACTACAAATTTTCCAAACAAAAACCCTTTTTAATGACTACAACTTATGATTTTATGAATTTTACTGCTCTTGAAAAAGATATTTTGACATTGATCGCTGTACTGTTTCAGACATTCATTGCATCCATTTTTGTTGGCTACTCCTCACAAACTCAAAACTTTTCCACACGAGAAACCTTGTTTATTGAATTTTGCCTTTATATTTTGGAACTTGTTGTTGGATTTATTGTTTGCTTAATTATTGACCTCACACCTGTTTTAAACACTACAAT
# modifications: Potamipivirus B
# B2: Parechovirus A17 (nucleic acid, listed as Parechovirus sp.)
# DNA: CTCTATTAGTGAGATACCACGCTTGTGGACCTTATGCTCACACAGCCATCCTCTAGTAAGTTTGTAAGACGTCTGGTGACGTGTGGGAACTTGTGGGAATCAATATTTTGCTTTAAAGCATCCATTAGCCAGCGGATAAAACACCTGGTAACAGGTGCCTCTGGGGCCAAAAGCCAAGGTTTAACAGACCCTAGTGGATTGGTTTCAAAACCTGAAATATTGTGGAACACACTCAGTACCTACTGATCTGGTAGTAATGCAAGCACTAGTTGTAAGGCCCACGAAGGATGCCCAGAAGGTACCTGTAGGGAACAAGAGACACTATAGATCTGATCTGGGGCTGGCTACCTCTATTTTGGTGAGTCAGTTAAAAAACGTCTAGTGGGCCAAACCCAGGGGGGACCCTGGTTTCCATTTATTTTACAAAGGCACT
# B3: Oscivirus (nucleic acid, listed as Oscivirus sp.)
# DNA: CCTCGGTCCCTCTTTCCGTCGCCGCCCACGACGTTAAATGCGGTGTTGTGGTGCTTAGGTGCCACACCACTGCTATTTGGGTCCCCCTTTCCCCTATATATGTTTGTTTGTTTATTTCAATTTCTTGAGGATTGGCACCTCCTTATGCCAAATCTAAATCGTGGAGGATCCCAGGCTTTCTGGTCTTTAACAGAACTCCACGTCCAGGTCATAGAAACTGGTTGGTAGGCTGCCTGAGTAGTCCATTTGCTAGTAGTCCCTTGTGAACAGGGTGGCTCCCGTTTACTGCTGGTATTCCCGGTGTAGGTCGCCATGGTGGTAACACCATCCTGCATTGTGTGTGAACCAGTACCGCAAGGATAGCAAGGTATGAACACTTGTGGACGAAATGGTAAGTGATCAATTCACTTTCATGGCCGGAAGGTCACGTGGCAATCATGCCACCCAGGTACCCTCCTCTGGGAGGATCTGAGGGTGGGCTAAGCAGACCCTGCCATGTGGCTGAACTTTTCCCTTATTGTTTTACTTTGTAACATTTATAGTTGTGTTAGTGATTTGTGTGTTGTGCCCTTGTGAGCTATATCCAGTATAAGTTCGCAGCTAGAAGTTAATCCTTCGACATCGGCTGTATTGGAA
# B4: Beihai Conger Picornavirus (nucleic acid)
# DNA: GGGACAACCCCACAGCTGGTACAACCATTGTGGGTTGGTCTCCACCCTTTTTCAACCGTGGCAACTTCGGTTAAAGTTGCAAATCCCCCCTCTCCCTATTCCACCTCCCTTACTTTCACTCCCCATATATGGTCCCAGATTTTATTCTACCTCTTTATATTTTTATTTAGTACAGTGGTGGTGAATTACTCCCAGCATAAACTTTGCTGGATCAGTGTTCATCAAGCATACTAATTACTAATGTACTGAGCTATACTATTATCTGGCATCTCACCTGGATAACCGGTGTGACCATATTTCCTAGGTTGCCTCCCTATGTATTTTGTAGCACCTGTGCATCTGCACGTTGGGGCGACAAATTGTAGGTTTCCTGGCACGGGTAAGAATTGTGGAAAGCTAGTATGCAGTTAATGCAAGGGCGCGTTTTTCGCTACCCCGACACTGCTAAAGTTTTTGGGAGGGGTCCCTTAAACATTTCTAGTATTGAGTGATAGCTTTGCGGCAGGTCACCACAACCTTACTATAAATAAACCTGTTGAATCTCAC
# B5: Potamipivirus A (nucleic acid)
# DNA: CACATGGAAAGCTTTTCGCTTCCATGTTTACGCACACACTCTCTTTGACACCCTGTTGTATGGTGTTAAACTACAACATTTGTCTGTCTATAATCGTTTATTTTGTTTACCCTATATGTACCCAAGTATTTGATTGCTTGACTCACATAAGCATCGGTAACCCATACTGTTTTATGAGCTACTACCTCTGCTGTCTACATACATTTTATATGAATGGTTTGAGCTCTGCCTCAGGATCAAACATGGTAACATGTTCCTTTGGTCAGTTAGAATCTTATTGTATAATCTAAGGTGTCTATTAGTACGTAGAAAGTTGTAACACATATGGGGCCTGATAGCCGCTATCTCTGATGGATGTAAGGTAACCTTCTTTAGGTCTGATACATTCTGCACAGGATCCAATTTTCGGTGCCCTGTACGAGTGCACTCTTATGCACGAGGACGAGATATGCTACAACCCACTGCAAATTTAAACCCAAACTTTAACA
# modifications: Potamipivirus A
# B6: Parechovirus A8 (nucleic acid, listed as Parechovirus sp.)
# DNA: GGGCCTTATACCCCGACTTGCTGAGTTTCTCTAGGAGAGTCCCTTTCCCAGCCCTGAGGCGGCTGGATAATAAAGGCCTCACATGTAACAAACATCTAAGACAAAATAATTTGCCTTGCACCTGGTCCCCACTAGTTGAAGGCATCTAGCAATAAGATGAGTGGAACAAGGACGCTTAAAGTGCAATGATAGTTATCTTTTCTAACCCACTATTTATAGTGGGGTGGTGGATGGCGCACCATAATTCTAATAGTGAGATACCACGCTTGTGGACCTTATGCTCACACAGCCATCCTCTAGTAAGTTTGTGAGACGTCTGGTGACGTGTGGGAACTTACTGGAAACAATGCTTTGCCGTAAGGCTTTCATTAGCCAGCGGACCACCACCTGGTAACAGGTGCCTCTGGGGCCAAAAGCCAAGGTTTAATAGACCCTAATGGAATGGTTCAAACCTGGAGCATTGTGGAAAGTACTTAGTACCTGCTGATCTGGTAGTAATGCAAACACTAGTTGTACGGCCCACGAAGGATGCCCAGAAGGTACCCGTAGGTAACAAGTGACACTATGGATCTGATCTGGGGCCAACTACCTCTATCTTGGTGAGTTGGTTAAAAAACGTCTAGTGGGCCAAACCCAGGGGGGATCCCTGGTTTCCTTTTATTTTACTTTGTCAAT
# B7: Parechovirus A3 (nucleic acid, listed as Parechovirus sp.)
# DNA: AGAGTCCTTTTCCCAGCCAGAGGTGGCTGGTTAAATAATACCTACTGTAACAAAACATCTAAGATGTAACAACCACACACCTGGTCTCCACTGGCCGAAGGCAACTAGCAATAAGGCAGGTGGGTTCAGACGCTTAAAGTGTGTTGTACATATTCTTTTCTAACCTGTGTTTTACACAGGGTGGCAGATGGCGTGCCATAACTCTAACAGTGAGATACCACGCTTGTGGACCTTATGCTCACACAGCCATCCTCTAGTAAGTTTGTAAGATGTCTGATGACGTGTGGGAACCTGTTGGAGATAACAGTTTGCTGCAAAGCATCCCACTGCCAGCGGATCTACATCTGGTAACAGATGCCTCTGGGGCCAAAAGCCAAGGTTTAACAGACCCTTTGGGATTGGTTCAAACCTGAACTGTTATGGAAGACATTTAGTACCTGCTGATTTGGTAGTAATGCAAACACTAGTTGTAAGGCCCACGAAGGATGCCCAGAAGGTACCCGTAGGTAACAAGTGGCACTATGGATCTGATCTGGGGCCAGCTACCTCTATCTTGGTGAGTTGGTTAAAAAACGTCTAGTGGGCCAAACCCAGGGGGGATCCTGGTTTCTTTTTAATTTAAGTAATCACT
# System: HEK293 cells
# Type: cell-based, human
# Settings: luminescence from secreted Gluc in supernatant 24 hours after transfection of HEK293 cells; circular RNA encoding Gluc with the named IRES (UTR truncated to 675 nt)
row,Molecule,Expression
1,B1,7.20E+05
2,B2,1.20E+06
3,B3,4.55E+07
4,B4,1.15E+06
5,B5,8.43E+05
6,B6,1.61E+07
7,B7,3.58E+06
